Measurements from US20180022781A1 (INSERM INSTITUT NATIONAL DE LA SANTE ET DE LA RECHERCHE …, published 2018).
Changes are numbered by the printed parent chain.

T1: full-length Ty1 IN (IN1-635) fused to Gal4 activating domain (Saccharomyces cerevisiae, UniProt P0C2I7 583-1217)
T1 construct: the residue numbers of the constructs agree with it
T1 sequence: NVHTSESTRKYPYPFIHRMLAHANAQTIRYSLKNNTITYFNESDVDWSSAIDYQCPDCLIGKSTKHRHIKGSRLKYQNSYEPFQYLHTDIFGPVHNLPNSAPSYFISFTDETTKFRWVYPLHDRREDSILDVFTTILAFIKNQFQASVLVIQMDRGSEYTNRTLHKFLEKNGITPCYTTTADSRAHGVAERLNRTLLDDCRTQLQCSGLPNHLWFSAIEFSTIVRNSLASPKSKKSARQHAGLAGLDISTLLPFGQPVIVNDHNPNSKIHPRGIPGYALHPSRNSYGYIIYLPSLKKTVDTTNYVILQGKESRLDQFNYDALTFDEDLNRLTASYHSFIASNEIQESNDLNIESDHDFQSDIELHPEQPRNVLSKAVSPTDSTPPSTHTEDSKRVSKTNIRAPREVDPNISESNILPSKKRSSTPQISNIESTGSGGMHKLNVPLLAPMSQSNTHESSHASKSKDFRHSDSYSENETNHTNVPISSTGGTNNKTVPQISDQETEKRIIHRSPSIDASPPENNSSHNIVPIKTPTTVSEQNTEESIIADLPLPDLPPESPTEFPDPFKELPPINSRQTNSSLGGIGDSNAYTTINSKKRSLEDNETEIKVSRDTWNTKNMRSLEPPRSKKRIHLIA

B1: Ty1 integrase with S621 modified in A, expressed from a mutant Ty1 element (protein)
chain: T1 sequence with S621A
B2: Ty1 integrase with L622 modified in A, expressed from a mutant Ty1 element (protein)
chain: T1 sequence with L622A
B3: Ty1 integrase with K617 modified in A, expressed from a mutant Ty1 element (protein)
chain: T1 sequence with K617A
B4: Ty1 integrase with M619 modified in A, expressed from a mutant Ty1 element (protein)
chain: T1 sequence with M619A
B5: Ty1 integrase (IN) expressed from a functional Ty1 element (protein)
chain: T1 sequence
B6: Ty1 integrase with R619 [read as R620] modified in A, expressed from a mutant Ty1his3AI element (protein)
chain: T1 sequence with R620A
B7: S. pombe AC40 (AC40sp) fused to Gal4 binding domain (GBD-AC40sp) (other, UniProt P04386 1-147, looked up)
chain: MKLLSSIEQACDICRLKKLKCSKEKPKCAKCLKNNWECRYSPKTKRSPLTRAHLTEVESRLERLEQLFLLIFPREDLDMILKMDSLQDIKALLTGLFVQDNVNKDAVTDRLASVETDMPLTLRQHRISATSSSEESSNKGQRQLTVSMAAVDRSRTEISVLSDRVTDVGSVDFPGYYFDEDNIWDLDKFKKNLKVSITSLDQETMVFEISGIDASIANAFRRILIAEIPTLAFEFVYIINNTSIIQDEVLSHRIGLVPISADPDMFKWFQHPLPGQEATHTDYDTVVFSLNKKCEFNKNAATDEKDPKRLYVNSEVYSGDLIWKPQGRQEERFADNPIRVVNPDIVVAKLRPGQEIDLEAHAILGIGQDHAKFSPVATASYRLLPTIHILSPIEGEDAVKFQKCFPKGVIELEEGPDGKKQARVADVRKDTVSRECLRHPEFADKVQLGRVRDHYLFSVESTGIMKPDVLFIKSIAVLKSKCLAVKSSLQNISSD

What was measured:
[1] = molecular target: S. pombe AC40 (AC40sp) (Schizosaccharomyces pombe) (UniProt O94616); experiment: cell-based or functional assay
[2] = molecular target: AC40 subunit of RNA polymerase III, P07703
Chain of AC40 subunit of RNA polymerase III, P07703 (P07703 whole entry, looked up, tested part not stated): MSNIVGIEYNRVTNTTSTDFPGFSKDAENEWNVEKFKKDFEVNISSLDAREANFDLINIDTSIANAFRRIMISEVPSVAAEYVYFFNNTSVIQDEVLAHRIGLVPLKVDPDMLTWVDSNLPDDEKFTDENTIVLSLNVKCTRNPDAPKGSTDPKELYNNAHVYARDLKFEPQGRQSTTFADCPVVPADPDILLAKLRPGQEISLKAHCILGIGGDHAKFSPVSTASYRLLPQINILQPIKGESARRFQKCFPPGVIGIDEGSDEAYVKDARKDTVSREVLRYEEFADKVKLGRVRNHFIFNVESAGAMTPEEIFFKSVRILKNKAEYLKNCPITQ

[3] = molecular target: S. pombe AC40 (AC40sp), O94616
[4] = molecular target: T1, full-length Ty1 IN (IN1-635) fused to …; experiment: yeast two-hybrid
Excerpt: (A) Two-hybrid interaction between different domains of Ty1-IN and AC40 or AC40sp. Left, Ty1 structure. Two open reading frames, GAG and POL (historically TYA and TYB), are flanked by two LTRs (black triangles). Protease (PR), integrase (IN), reverse transcriptase-RNAse H (RT/RH). The left-right arrow indicates Ty1 sequences recovered in the two-hybrid screen (2-HS) with AC40 as bait (coordinates 2706-4342 in Ty1). Ty1-IN regions fused to Gal4 activating domain (GAD) are depicted. Right, serial 10-fold dilutions of liquid cultures of cells expressing AC40 or AC40sp fused to Gal4 binding domain (GBD) and the various GAD-IN proteins were plated onto non-selective (Control) or selective (Interaction) media to detect interactions. (B) Co-immunoprecipitation of AC40 and IN-Strep. A 6×HA epitope was inserted at the end of the endogenous RPC40 gene (AC40-HA) and IN was fused with streptavidine (IN-Strep) and expressed from a galactose inducible promoter. Immunoprecipitation of protein extracts was performed with anti-HA magnetic beads coupled to IgG. […] (C) Co-immunoprecipitation of AC40 and IN expressed from a galactose inducible functional Ty1 element. Immunoprecipitation conditions are as in FIG. 3B.

Row | Molecule | PCR detection of Ty1 insertion events upstream of tG(GCC)C [2] | relative frequency of Ty1his3AI retrotransposition [2] | further results
1 | Ty1 integrase (IN) expressed from a functional Ty1 element (from UniProt P0C2I7 583-1217) (enzyme) |  |  | fraction of 5FOA^R cells arising from Ty1 integration [1]: 30 fold lower
2 | B1 | Ty1 integration upstream of a Pol III genes is severely affected in Ty1 mutants carrying mutations that abolish IN/AC40 interaction | Ty1 overall mobility decreases no more than two-fold in Ty1 mutants carrying mutations that abolish IN/AC40 interaction | 
3 | B2 | Ty1 integration upstream of a Pol III genes is severely affected in Ty1 mutants carrying mutations that abolish IN/AC40 interaction | Ty1 overall mobility decreases no more than two-fold in Ty1 mutants carrying mutations that abolish IN/AC40 interaction | 
4 | B3 | The loss of this pattern was also obtained in mutants of Ty1 in which either of the K617 or M619 residues where modified in A (alanine) | Ty1 overall mobility decreases no more than two-fold in Ty1 mutants carrying mutations that abolish IN/AC40 interaction | 
5 | B4 | The loss of this pattern was also obtained in mutants of Ty1 in which either of the K617 or M619 residues where modified in A (alanine) | Ty1 overall mobility decreases no more than two-fold in Ty1 mutants carrying mutations that abolish IN/AC40 interaction | 
6 | B5 |  |  | PCR pattern of Ty1 insertions upstream of tG(GCC)C [3]: In cultures expressing AC40sp, the pattern was dramatically altered, showing both a significant decrease in Ty1 integration and an apparent relaxed periodicity between hotspots; frequency of IN-dependent Ty1HIS3 integration in a rad52Δ mutant [3]: the frequency of IN-dependent integration is 2-fold lower in AC40sp cells compared to AC40 cells; genome-wide Ty1 integration profile [3]: the loss-of-interaction mutant displayed a fundamentally different profile with only a slight bias to integrate near tRNA genes
7 | B6 |  | Ty1 overall mobility decreases no more than two-fold in Ty1 mutants carrying mutations that abolish IN/AC40 interaction | 
8 | B7 |  |  | binding result [4]: no binding
